Data: PMC4370877

Target: recombinant Small basic protein (rSbp) (S. epidermidis)
Assay: ELISA; competition; rSbp (150 μg/ml in PBS) pre-incubated with soluble rDomain-B (0.4-100 μg/ml) for 1 h at 4°C, then loaded into rDomain-B-coated wells; inhibition = (1 - A405 with rDomain-B / A405 without) x 100

Work on “recombinantly expressed Aap domain-B (rDomain-B) (domain or fragment)” yielded a percent inhibition of rSbp binding to immobilized rDomain-B of 80%.
